In the experiment the test system is dorsal skin full-thickness excisional wound in STZ-induced diabetic rats. Nature of the experiment: Dorsal skin full-thickness excisional wound model in STZ-induced diabetic rats, wound closure. It is filed as in vivo, Wistar rats. Particulars: for Remaining open wound area: GeneTime 0.04 mL topical twice daily. Here is the method:
In this study, 50 STZ-diabetic rats were used to simulate Type 1 diabetes, with an additional 8 normal rats serving as the control group (normal blank gel control group (without STZ)). The method for modeling the STZ-diabetic rat is as follows: Male Wistar rats were weighed and then intraperitoneally injected with Streptozotocin (STZ, freshly prepared, dissolved in 0.1 M citrate buffer (pH 4.5)) at a dosage of 80 mg/kg. STZ was intraperitoneally injected twice in total, with a 5-day interval between injections. Three days after the second STZ injection, rats with fasting blood glucose levels greater than 250 mg/dl were defined as diabetic model rats. Studies on skin wound healing could be conducted from 1 to 8 weeks after the successful establishment of the diabetic rat model. • 2.
In diabetic model rats, the dorsal skin was marked with a stamp, and full-thickness excision was performed to create a standardized wound area. The day of the full-thickness skin excision surgery was designated as Day 1 of the experiment. The specified surgical procedure was as follows: • 1) Prior to surgery, animals were anesthetized with 2-5% isoflurane. The back was shaved and prepared, and the surgical area was disinfected with iodophor, followed by de-iodination with 75% alcohol. • 2) All animals were marked on the skin of their backs using a stamp with a circular pattern. A circular full-thickness skin excision was performed along the midline of the rat's back, extending down to the fascial layer. […] The surgical site was essentially consistent for each animal; • 3) Post-surgery, every 8-12 hours, 8 mg/kg of bupivacaine (diluted to 0.25% with physiological saline) was injected subcutaneously at the wound site. All animals were closely monitored until they regained consciousness. Animals were monitored daily, and if symptoms of pain persisted, they would continue to receive pain medication. • 4. Drug administration:
All experimental groups were topically administered. Before administering the medication, wounds were rinsed with physiological saline and any residual moisture was absorbed with a sterile cotton swab. Then, the medication was applied. For the GeneTime group, the solution was evenly applied to the wound and surrounding skin, with the dressing changed twice a day. For the other groups, the gel samples were applied from the periphery toward the center, focusing first on the edges of the lesion before covering inward, with the dressing changed twice a day. Medication was applied immediately after the wound model was created, and each group was continuously administered for 18 days. For specific administration information, see Table 2. • 5. Efficacy assessment • 1) Blood glucose monitoring: Blood samples were obtained from all animals via tail vein sampling, and fasting blood glucose levels were measured on days 0/9/18 using a glucometer. • 2) Evaluation of wound closure:
After anesthetizing the rats with isoflurane, a ruler was placed near the wound as a reference scale. Using a digital camera, photos of the wound on the rat's back were taken on days 1, 4, 8, 11, 14, and 18, maintaining a constant focus and pixel condition. The obtained images were processed by software to measure the wound area. • 6. Statistical analysis
Experimental data were expressed as the mean±standard error of the mean (mean±S.E.M.). Statistical analyses were conducted using appropriate methods in software such as Graphpad Prism or SPSS. A p-value of less than 0.05 is considered to indicate a significant difference. • 7. Results • 1) Fasting blood glucose
Remaining Open Wound Area %=Open Wound Area (O)/Initial Wound Area (I)*100%

Experimental findings from patent publication US20240238263A1, “USE OF PYRIDONE DERIVATIVE CONTAINING HETEROATOM CYCLOBUTANE SUBSTITUENT” (GUANGZHOU JOYO PHARMATECH CO., LTD, priority 2021, published 2024) are described below.

B1: GeneTime: Recombinant Human Epidermal Growth Factor External Solution, 2000 IU/mL; positive control (protein, UniProt P01133 23-1207, looked up)
Pro-epidermal growth factor: PQHWSCPEGTLAGNGNSTCVGPAPFLIFSHGNSIFRIDTEGTNYEQLVVDAGVSVIMDFHYNEKRIYWVDLERQLLQRVFLNGSRQERVCNIEKNVSGMAINWINEEVIWSNQQEGIITVTDMKGNNSHILLSALKYPANVAVDPVERFIFWSSEVAGSLYRADLDGVGVKALLETSEKITAVSLDVLDKRLFWIQYNREGSNSLICSCDYDGGSVHISKHPTQHNLFAMSLFGDRIFYSTWKMKTIWIANKHTGKDMVRINLHSSFVPLGELKVVHPLAQPKAEDDTWEPEQKLCKLRKGNCSSTVCGQDLQSHLCMCAEGYALSRDRKYCEDVNECAFWNHGCTLGCKNTPGSYYCTCPVGFVLLPDGKRCHQLVSCPRNVSECSHDCVLTSEGPLCFCPEGSVLERDGKTCSGCSSPDNGGCSQLCVPLSPVSWECDCFPGYDLQLDEKSCAASGPQPFLLFANSQDIRHMHFDGTDYGTLLSQQMGMVYALDHDPVENKIYFAHTALKWIERANMDGSQRERLIEEGVDVPEGLAVDWIGRRFYWTDRGKSLIGRSDLNGKRSKIITKENISQPRGIAVHPMAKRLFWTDTGINPRIESSSLQGLGRLVIASSDLIWPSGITIDFLTDKLYWCDAKQSVIEMANLDGSKRRRLTQNDVGHPFAVAVFEDYVWFSDWAMPSVMRVNKRTGKDRVRLQGSMLKPSSLVVVHPLAKPGADPCLYQNGGCEHICKKRLGTAWCSCREGFMKASDGKTCLALDGHQLLAGGEVDLKNQVTPLDILSKTRVSEDNITESQHMLVAEIMVSDQDDCAPVGCSMYARCISEGEDATCQCLKGFAGDGKLCSDIDECEMGVPVCPPASSKCINTEGGYVCRCSEGYQGDGIHCLDIDECQLGEHSCGENASCTNTEGGYTCMCAGRLSEPGLICPDSTPPPHLREDDHHYSVRNSDSECPLSHDGYCLHDGVCMYIEALDKYACNCVVGYIGERCQYRDLKWWELRHAGHGQQQKVIVVAVCVVVLVMLLLLSLWGAHYYRTQKLLSKNPKNPYEESSRDVRSRRPADTEDGMSSCPQPWFVVIKEHQDLKNGGQPVAGEDGQAADGSMQPTSWRQEPQLCGMGTEQGCWIPVSSDKGSCPQVMERSFHMPSYGTQTLEGGVEKPHSLLSANPLWQQRALDPPHQMELTQ
modifications: Pro-epidermal growth factor
notes: Recombinant Human Epidermal Growth Factor External Solution, 2000 IU/mL; positive control
On to B1, for which the “Remaining open wound area” value is 100% ± (Day 1 (day of surgery)); 91.82% ± (Day 4); 52.36% ± (Day 8); 8.17% ± (Day 14); 1.79% ± (Day 18). For the setting “GeneTime, day 11 after administration, P<0.05”, the “Change of remaining open wound area % vs model blank gel control group” value was “significantly reduced”.
